This is an account of results in paper PMC4102243, “Rett-causing mutations reveal two domains critical for MeCP2 function and for toxicity in MECP2 duplication syndrome mice”.

The data set addresses MeCP2 C-terminal fragment WT (human, UniProt P51608 274-340). The data set can be described thus: EMSA; 10 mM Tris-HCl pH 7.4, 50 mM KCl, 0.5 mM MgCl2, 0.1 mM EDTA, 5% glycerol, 0.1 mg/ml BSA, 66.7 nM probe, room temperature 30 min; 1% agarose gel, 1X TAE, 4 C. The conditions noted are these: protein: recombinant; tags: N-terminal GST (pGEX-5x3); label: none (ethidium bromide post-stain); blunt.

MeCP2 C-terminal fragment WT, sequence (P51608 274-340): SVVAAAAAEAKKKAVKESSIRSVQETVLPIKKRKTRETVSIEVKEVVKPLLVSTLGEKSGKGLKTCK

B1: 64-bp EMSA probe (dsDNA)
DNA 1: GGACTCCAGGTCCAGGACCGCGTTTTTCGCGCGCACGGCGCGGGAGGTCCAGCTGTCCACCTCC
DNA 2: GGAGGTGGACAGCTGGACCTCCCGCGCCGTGCGCGCGAAAAACGCGGTCCTGGACCTGGAGTCC
Consider B1, for which the binding result is reported as “binds”.
